Test [1] concerns the target T1, human Factor XIa, activated form of coagulation factor XI (human, UniProt P03951 19-387; P03951 388-625). In words: cell-based or functional assay.
Test [2] deals with T1, human Factor XIa, activated form of …. In words: ELISA. In general terms: An ELISA detects its analyte on a solid surface through an enzyme-linked reagent.
The next test deals with human FIX (human, UniProt P00740 47-461). Nature of the test: ELISA, antibody dilution series. How it is done:
(§1) In this example, the binding ability of coagulation factors PK, PKa, FXII, FXIIa, FIX, FIXa, FX, FXa, FVIIa, and Thrombin to antibodies at a series of diluted concentrations was analyzed using ELISA.

Another test deals with T2, human FVIIa (human, UniProt P08709 61-212; P08709 213-466).
T2 sequence (looked up) 1: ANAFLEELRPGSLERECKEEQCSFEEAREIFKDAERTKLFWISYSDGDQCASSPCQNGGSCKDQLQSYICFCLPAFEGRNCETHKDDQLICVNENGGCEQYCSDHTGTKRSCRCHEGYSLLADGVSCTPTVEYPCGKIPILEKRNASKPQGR
T2 sequence (looked up) 2: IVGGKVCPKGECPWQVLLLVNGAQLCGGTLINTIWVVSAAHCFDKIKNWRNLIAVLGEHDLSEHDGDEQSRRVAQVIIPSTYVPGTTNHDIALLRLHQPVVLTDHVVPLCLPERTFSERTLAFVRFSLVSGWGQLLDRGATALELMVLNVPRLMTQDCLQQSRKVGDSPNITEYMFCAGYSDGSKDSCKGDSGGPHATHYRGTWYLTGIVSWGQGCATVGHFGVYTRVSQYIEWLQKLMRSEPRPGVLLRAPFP
In words: ELISA, antibody dilution series. How it is done: as §1

Another test concerns the target human Thrombin (human, UniProt P00734 328-363; P00734 364-622). In words: ELISA, antibody dilution series. How it is done: as §1
The target in a further test is human FIXa (human, UniProt P00740 47-191; P00740 227-461). Nature of the test: ELISA, antibody dilution series. On the procedure: as §1
In a further test the target is human FX (human, UniProt P00742 41-488). Nature of the test: ELISA, antibody dilution series. On the procedure:
as §1

A further test concerns the target T3, human FXII (human, UniProt P00748 20-615).
T3 sequence (looked up): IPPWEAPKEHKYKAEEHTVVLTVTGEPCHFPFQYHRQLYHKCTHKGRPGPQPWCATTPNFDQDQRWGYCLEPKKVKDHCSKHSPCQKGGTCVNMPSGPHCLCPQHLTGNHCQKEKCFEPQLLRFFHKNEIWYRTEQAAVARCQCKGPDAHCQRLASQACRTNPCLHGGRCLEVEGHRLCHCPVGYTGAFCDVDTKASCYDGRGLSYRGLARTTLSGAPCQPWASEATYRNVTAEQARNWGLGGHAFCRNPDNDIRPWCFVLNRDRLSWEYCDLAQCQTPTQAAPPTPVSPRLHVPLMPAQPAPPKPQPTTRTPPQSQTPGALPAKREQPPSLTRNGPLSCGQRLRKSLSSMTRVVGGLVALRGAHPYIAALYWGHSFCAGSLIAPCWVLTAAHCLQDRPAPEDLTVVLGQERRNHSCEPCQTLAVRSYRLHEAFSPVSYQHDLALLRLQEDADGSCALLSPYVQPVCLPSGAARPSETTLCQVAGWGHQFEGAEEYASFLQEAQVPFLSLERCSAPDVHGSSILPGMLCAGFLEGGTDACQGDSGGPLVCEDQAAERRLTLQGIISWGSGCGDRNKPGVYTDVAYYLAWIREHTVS
In words: ELISA, antibody dilution series. How it is done: as §1

The target of another test is human PK (human, UniProt P03952 20-638). Nature of the test: ELISA, antibody dilution series. How it is done: as §1
Another test concerns the target human FXa (human, UniProt P00742 41-179; P00742 235-488, limits assumed). Nature of the test: ELISA, antibody dilution series. How it is done: as §1
The target of test [3] is T1, human Factor XIa, activated form of …. In words: SPR, BIAcore T200, antibody captured on Protein A chip, FXIa as analyte, 1:1 Langmuir fit. How it is done:
(2) Sample testing conditions: The binding characteristics of FXIa and antibodies were preliminarily determined and evaluated in a manual mode. 10 nM was determined as the maximum analytical concentration of FXIa. […] During the sample analysis, the flow rate was set to be 30 μL/min, the binding time was 120 s, and the dissociation time was 600 s.
(3) Regeneration conditions: With reference to other experiments, preliminary determination and evaluation were performed in a manual mode. […] During the regeneration, the flow rate was set to be 30 μL/min, and the regeneration time was 30 s.
(4) Kinetic parameter determination: The experiment was carried out in a multi-cycle mode, in which the response signal took the analysis time as the horizontal coordinate and the response value as the vertical coordinate. The obtained data were fitted by BIAcore T200 analysis software, during which a 1:1 Langmuir binding model was used as a fitting model, so as to determine the kinetic constants such as an association rate constant, a dissociation rate constant, and an association-dissociation constant.
A general note: Surface plasmon resonance follows binding to a sensor surface in real time, without labels.

B1: anti-human FXIa full-length human monoclonal antibody 14624 (antibody, IgG1, V domains shown)
VH: QVQLVQSGAEVKKPGASVKVSCKVSGYTLTELSMHWVRQAPGKGLEWMGGFDPEDGETIYAQKFQGRVTMTEDTSTDTAYMELSSLRSEDTAVYYCATDRPVRGVIPYYYYYGMDVWGQGTLVTVSS
VL: QSALTQPPSASGTPGQTVTISCSGSRSNIGSRPVNWYQHLPGTAPKLLIYIDHQRPSGVPDRFSGSKSGTSASLAISGLQSDDEADYYCAAWDDSLDAYVFGTGTKVTVL
notes: Full-length IgG1 made in CHO cells
B1: the “IC50 (nM), inhibition of human FXIa hydrolysis of S-2366” value in test [1] was 47.3 nM. For the same molecule, the EC50 (usually the concentration at which the effect is half-maximal) in test [2] is 0.056 nM. For the same molecule, the binding result in the test with human FIX, with human FVIIa, with human Thrombin, with human FIXa, with human FX and in the test with human FXII was “no binding” each time. The binding result with human PK and with human FXa was “no binding” throughout. Further, in [3], binding was characterised by a dissociation constant (Kd) of 0.0231 nM. Moreover, in [3], the koff – broadly, a measure of how fast the partners let go of each other – is 0.00245 s⁻¹. Besides, the kon (as a rule, a measure of how fast the partners come together) in [3] is 1.06e+08 M⁻¹ s⁻¹.

Source of the values: patent publication US20220153872A1 (MAB LEGEND BIOTECH, published 2022).
